Data as given in US20180209983A1 (SUBDOMAIN, published 2018).

Legend:
[1] = target: T1, purified recombinant PD1-Fc protein (UniProt Q15116 25-167, limits assumed); experiment: phage ELISA; signal on target-Fc over non-specific control (e.g. IgG1-Fc); average where several clones
T1 construct: not shown: Fc portion
Experimental: (§1) Selections were also performed using F1, F2, F3, C1 & C2 trinucleotide phosphoramidite libraries. In most cases, libraries were pooled prior to use in selection. By combining equal volumes of the individual libraries, Pool F (libraries F1, F2 and F3) and Pool C (libraries C1 and C2) were generated. These libraries were used in selections for DBDpp binders to 4-1BB/CD137 as well as a larger panel of purified recombinant “target”-Fc proteins, including CD47, CTLA4, DR5, KIR, LAG3, OX40, PD1, PD-L1 and TIM3. (Many of these targets are considered immuno-regulatory factors (Pardoll et al., Nat. Rev. Cancer 12:252-264 (2012)). After incubation of the target with the pools of DBDpp phage libraries, bound phage-target complexes were captured and separated from unbound phage with protein A beads (target proteins were Fc fusions). After three rounds of selection, rescued phage clones were screened by ELISA for binding to the selected target.
(§2) For each target, approximately 90 DBDpp phage clones were screened by ELISA for binding to the target protein and as well as a non-specific control (e.g., IgG1-Fc). […] In some instances, for the ELISA screening plate in which the majority of DBDpp clones were positive, the entire plate was sequenced.

[2] = target: T2, recombinant, biotinylated, Human 4-1BB/TNFRSF9/CD137-Fc (human, UniProt Q07011 24-186, biotinylated (site not stated)); experiment: phage ELISA of rescued clones on human CD137-Fc
T2 construct: Selection and screening target of the phage ELISA; also called 4-1BB/CD137; not shown: Fc portion
T2 sequence (Q07011 24-186 limits assumed): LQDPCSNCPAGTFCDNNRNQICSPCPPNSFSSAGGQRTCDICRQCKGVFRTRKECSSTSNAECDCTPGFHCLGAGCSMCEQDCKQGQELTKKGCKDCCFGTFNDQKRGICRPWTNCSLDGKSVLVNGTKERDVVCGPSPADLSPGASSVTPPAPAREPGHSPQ
Description: The F2NNK DBD library was used in five rounds of selection against recombinant, biotinylated, Human 4-1BB/TNFRSF9/CD137-Fc.

[3] = target: T3, purified recombinant DR5-Fc protein (UniProt O14763-2 56-182, limits assumed); experiment: phage ELISA; signal on target-Fc over non-specific control (e.g. IgG1-Fc); average where several clones
T3 construct: also called TRAIL-R2; not shown: Fc portion
T3 sequence (O14763 56-182 limits assumed): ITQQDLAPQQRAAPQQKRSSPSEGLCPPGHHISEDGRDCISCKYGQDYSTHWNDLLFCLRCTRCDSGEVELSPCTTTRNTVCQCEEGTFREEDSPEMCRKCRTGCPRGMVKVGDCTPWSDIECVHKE
Experimental: as §1, §2

[4] = target: purified recombinant KIR-Fc protein; experiment: phage ELISA; signal on target-Fc over non-specific control (e.g. IgG1-Fc)
[5] = target: purified recombinant KIR-Fc protein; experiment: phage ELISA; signal on target-Fc over non-specific control (e.g. IgG1-Fc); average where several clones
[6] = target: T4, purified recombinant TIM3-Fc protein (UniProt Q8TDQ0 22-202, limits assumed); experiment: as above
T4 construct: not shown: Fc portion
Experimental: as §1, §2

[7] = target: T5, purified recombinant PD-L1-Fc protein (UniProt Q9NZQ7 19-238); experiment: as above
T5 construct: also called B7-H1; not shown: Fc portion
T5 sequence (Q9NZQ7 19-238 limits assumed): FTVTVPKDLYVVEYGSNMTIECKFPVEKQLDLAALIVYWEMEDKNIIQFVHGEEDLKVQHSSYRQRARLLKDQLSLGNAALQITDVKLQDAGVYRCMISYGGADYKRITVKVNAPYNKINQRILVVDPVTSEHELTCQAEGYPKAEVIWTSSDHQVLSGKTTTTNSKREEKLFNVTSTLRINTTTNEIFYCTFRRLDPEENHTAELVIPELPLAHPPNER
Experimental: as §1, §2

[8] = target: T5, purified recombinant PD-L1-Fc protein; experiment: phage ELISA; signal on target-Fc over non-specific control (e.g. IgG1-Fc)
Experimental: as §1, §2

T1 sequence (Q15116 25-167 limits assumed): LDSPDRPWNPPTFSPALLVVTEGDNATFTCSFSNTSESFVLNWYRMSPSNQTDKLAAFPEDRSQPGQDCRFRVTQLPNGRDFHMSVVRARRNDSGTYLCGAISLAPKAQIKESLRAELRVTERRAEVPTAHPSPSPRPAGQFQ

B1: DBDpp of SEQ ID NO: 46, phage-displayed (designed binder)
chain: MGSWTIFKEWLAFIKTDLEALGGSEAELAFFEGWIASFEMELQKYKGKGNPEVEALRKEAAAIRDELQAYRHN
notes: F1 library; rescued M13 phage clone, DBDpp fused to pIII
ELISA ratio [1]: 17.1

B2: bb10 (DBDpp clone from the F2NNK library), phage-displayed (designed binder)
chain: MGSWAEFKQRLAAIKTRLEALGGSEAELAAFLGEIWAFEMELAAYKGKGNPEVEALGREAAAIRMELQAYRHN
notes: Tested as rescued M13 phage; In the F2NNK library the DBDpp carries an N-terminal FLAG tag and is fused at its C-terminus to M13 pIII (pComb phagemid); also called the 89 clones
fold of ELISA OD over control (IgG Fc) [2]: 5.3 fold

B3: DBDpp of SEQ ID NO: 28, phage-displayed (designed binder)
chain: MGSWVYFKEHLAWIKTELEALGGSEAELAHFEHSIADFEMSLQFYKGKGNPEVEALRKEAAAIRDELQAYRHN
notes: F1 library
ELISA ratio [3]: 12.1

B4: DBDpp of SEQ ID NO: 37, phage-displayed (designed binder)
chain: MGSWLWFKIFLAEIKYFLEALGGSEAELAAFDFEIHAFHVELFAYKGKGNPEVEVLREVAAEIRWDLQAYRHN
ELISA ratio [4]: 4.17

B5: DBDpp of SEQ ID NO: 29, phage-displayed (designed binder)
chain: MGSWFYFKQHLAWIKSYLEALGGSEAELAHFERAIAAFEQHLQMYKGKGNPEVEALRKEAAAIRDELQAYRHN
notes: as for B1
ELISA ratio [3]: 11.8

B6: DBDpp of SEQ ID NO: 36, phage-displayed (designed binder)
chain: MGSWYEFYNRLYAIEIRLYALGGSEAELAAFEKEIAAFESELQAYKGKGNPEVERLRVRAAKIRVILQAYRHN
ELISA ratio [5]: 4.24

B7: DBDpp of SEQ ID NO: 45, phage-displayed (designed binder)
chain: MGSWVVFKVDLATIKYILEALGGSEAELAEFEGEIAGFEYSLQFYKGKGNPEVEALRKEAAAIRDELQAYRHN
notes: F1 library
ELISA ratio [6]: 5.79

B8: DBDpp of SEQ ID NO: 35, phage-displayed (designed binder)
chain: MGSWSEFYNRLDAIESRLLALGGSEAELALFEIQIARFEKVLQAYKGKGNPEVEALRGEARAIFAELYAYRHN
ELISA ratio [5]: 8.4

B9: DBDpp of SEQ ID NO: 48, phage-displayed (designed binder)
chain: MGSWYAFKDYLADIKGWLEALGGSEAELAFFEIFIARFELELQAYKGKGNPEVEALRKEAAAIRDELQAYRHN
notes: as for B1
ELISA ratio [1]: 3.29

B10: DBDpp of SEQ ID NO: 30, phage-displayed (designed binder)
chain: MGSWHYFKDHLAEIKGLLEALGGSEAELAHFEMAIADFEHNLQYYKGKGNPEVEALRKEAAAIRDELQAYRHN
notes: as for B1
ELISA ratio [3]: 11.4

B11: DBDpp of SEQ ID NO: 31, phage-displayed (designed binder)
chain: MGSWHYFKGHLAEIKNHLEALGGSEAELAHFERAIAAFERSLQWYKGKGNPEVEALRKEAAAIRDELQAYRHN
notes: as for B1
ELISA ratio [3]: 10.8

B12: DBDpp of SEQ ID NO: 32, phage-displayed (designed binder)
chain: MGSWIYFKEHLAYIKKELEALGGSEAELAHFESAIAVFESTLQYYKGKGNPEVEALRKEAAAIRDELQAYRHN
notes: as for B1
ELISA ratio [3]: 10.7

B13: DBDpp of SEQ ID NO: 33, phage-displayed (designed binder)
chain: MGSWTYFKEHLAEIKYMLEALGGSEAELAHFEVAIADFEKMLQYYKGKGNPEVEALRKEAAAIRDELQAYRHN
notes: as for B1
ELISA ratio [3]: 10.3

B14: DBDpp of SEQ ID NO: 34, phage-displayed (designed binder)
chain: MGSWWLFKDHLAEIKTALEALGGSEAELAHFEMAIAAFEKQLQYYKGKGNPEVEALRKEAAAIRDELQAYRHN
notes: as for B1
ELISA ratio [3]: 9.75

B15: DBDpp of SEQ ID NO: 40, phage-displayed (designed binder)
chain: MGSWYEFQNRLHAIHERLNALGGSEAELAAFEKEIAAFESELQAYKGKGNPEVELLRDDAAFIRHFLQAYRHN
notes: F3 library; rescued M13 phage clone, DBDpp fused to pIII
ELISA ratio [7]: 6.34

B16: DBDpp of SEQ ID NO: 44, phage-displayed (designed binder)
chain: MGSWFEFENRLHAIVHRLGALGGSEAELAAFEKEIAAFESELQAYKGKGNPEVETLRADAAFIRHYLQAYRHN
notes: as for B15
ELISA ratio [7]: 2.76

B17: DBDpp of SEQ ID NO: 41, phage-displayed (designed binder)
chain: MGSWFEFQDRLTAINERLSALGGSEAELAAFEKEIAAFESELQAYKGKGNPEVETLRSDAAFIRRFLQAYRHN
notes: as for B15
ELISA ratio [7]: 6.01

B18: DBDpp of SEQ ID NO: 61, phage-displayed (designed binder)
chain: MGSWYEFDDRLNAIHDRLQALGGSEAELAAFEKEIAAFESELQAYKGKGNPEVEDLRDDAAFIRRFLQAYRHN
notes: as for B15
ELISA ratio [8]: 12.2

B19: DBDpp of SEQ ID NO: 39, phage-displayed (designed binder)
chain: MGSWQEFDDRLNAIKARLQALGGSEAELAAFEKEIAAFESELQAYKGKGNPEVEDLRDDAAFIRRFLQAYRHN
notes: as for B15
ELISA ratio [7]: 7.41

B20: DBDpp of SEQ ID NO: 60, phage-displayed (designed binder)
chain: MGSWYEFTVRLEAIHERLKALGGSEAELAAFEKEIAAFESELQAYKGKGNPEVEILRDDAAFIRRFLQAYRHN
notes: as for B15
ELISA ratio [8]: 17.3

B21: DBDpp of SEQ ID NO: 38, phage-displayed (designed binder)
chain: MGSWTEFQSRLDAIHSRLRALGGSEAELAAFEKEIAAFESELQAYKGKGNPEVELLRDDAAFIRHFLQAYRHN
notes: as for B15
ELISA ratio [7]: 8.68

B22: DBDpp of SEQ ID NO: 43, phage-displayed (designed binder)
chain: MGSWYEFNHRLDAISKRLNALGGSEAELAAFEKEIAAFESELQAYKGKGNPEVEELRGDAAFIRHFLQAYRHN
notes: as for B15
ELISA ratio [7]: 2.98

B23: DBDpp of SEQ ID NO: 42, phage-displayed (designed binder)
chain: MGSWYEFESRLDAIHERLHALGGSEAELAAFEKEIAAFESELQAYKGKGNPEVENLRGDAAFIRHFLQAYRHN
notes: as for B15
ELISA ratio [7]: 4.88

B24: DBDpp of SEQ ID NO: 47, phage-displayed (designed binder)
chain: MGSWVMFKWLLADIKSHLEALGGSEAELAFFEGFIAAFETHLQVYKGKGNPEVEALRKEAAAIRDELQAYRHN
notes: as for B1
ELISA ratio [1]: 8.13
